Key:
[1] = molecular target: prefusion stabilised SARS-CoV spike ectodomain trimer, residues 1-1160, two proline substitutions, T (SARS-CoV); experiment: ELISA: spike ectodomain coated on the plate, 47D11 titrated, OD450nm
[2] = molecular target: prefusion stabilised SARS-CoV spike ectodomain trimer, residues 1-1160, two proline substitutions, T (SARS-CoV); experiment: ELISA, 47D11 titrated on coated spike ectodomain

47D11 fully human IgG1 monoclonal antibody
EC50 (read off the curve) [1]: 0.2 nM | EC50 (read off the curve) [2]: 0.2 nM
